Test results as given in US20190201494A1, “COMPOSITIONS AND METHODS FOR TREATING NICOTINE WITHDRAWAL” (STC UNM, priority 2016, published 2019).
“Also recorded” adds a separate entry of the source.

Legend:
[1] = cited from earlier work
[2] = system: overnight abstinent smokers; experiment: Questionnaire on Smoking Urges Brief ratings, overnight abstinence with Trier Social Stress Test (Example 1, parallel study); format: in vivo, human
Protocol: Session 2 methodology and results are presented in this publication.
Subjects started their overnight abstinence at 8 PM the night before reporting to the University of New Mexico Clinical and Translational Science Center. At 8 AM the following day, abstinence from smoking was confirmed with a CO reading on a coVita piCO+ breathalyzer less than 50% of their baseline CO recorded at intake. […] Exposure to nicotine was analyzed by quantitative liquid chromatography-tandem mass spectrometry. Cutoff for nicotine was 2 ng/mL for nicotine.
Following negative urine drug and pregnancy tests, at 8:30 AM, subjects completed their morning assessment of smoking urges and mood. A salivary cortisol sample was also taken at this time. They were then provided breakfast (a slice of banana bread, one apple, and two cheese sticks), which they had to eat entirely. The rest of the morning, subjects watched and read emotionally neutral movies and literature. At 11:45 AM, a study nurse inserted the intravenous line, completed a point-of-care (POC) glucose check and nares assessment.
Intranasal spray administration of insulin or placebo occurred at 12:30 PM. The purpose of the spacing time between morning check-in and nasal spray administration was stabilization of postprandial insulin levels. In a randomized fashion, the study nurse administered one spray in each nostril every three minutes for the total of six sprays of either insulin or placebo. Instructions to perform the Trier Social Stress Test were given at 13:20, and speech delivery occurred 13:30. Briefly, the Trier Social Stress Test^13 is a standardized laboratory stressor consisting of a free speech and a mental arithmetic task in front of an audience. Participants were introduced to the task and instructed to prepare a 5-minute presentation in which they were to promote their candidacy for a job. The speech was delivered after a 10-minute preparation period. Thereafter, participants were introduced to the mental arithmetic task, also standing in front of the audience and a self-projecting television screen. Subjects were required to count backwards from 2023 in steps of 17 as fast and accurately as possible for five minutes; upon making a mistake, subjects were asked to stop and start again at 2023. At every post-stress timepoint (13:40, 13:50, 14:00, 14:10, and 14:40), study nurses checked POC glucose to ensure euglycemia. After the last time point at 14:40, subjects ate a snack, had their glucose level checked, received another nares exam, and were discharged from the clinic at 16:00.
Subjective measures included the Questionnaire on Smoking Urges (QSU) Brief Form and Positive and Negative Affect Schedule (PANAS). Urges to smoke were rated using the 10-item QSU Brief Form^14 that consists of 10-questions. The answers are scored from 1 (strongly disagree) to 7 (strongly agree). These questions are the basis for the two factor derived subscales. Factor 1 subscale reflects a strong desire and intention to smoke with smoking perceived as rewarding. Factor 2 subscale reflects an anticipation of relief from negative affect with an urgent desire to smoke. Study data analysis included evaluations of both factors. The PANAS (Watson et al., 1988. J Pers Soc Psychol 54(6):1063-1070) consists of 10 negative and 10 positive mood terms rated on five-point Likert-type response scales from 1 (very slightly or not at all) to 5 (extremely). Positive and negative scale scores each range between 10 and 50. The PANAS was chosen as a composite measure of self-reported positive and negative affect. Subjective measures were taken at 08:30, 12:20, 13:00, 13:40, 13:50, 14:00, 14:10 and 14:40.
Placebo contained normal saline (0.9% NaCl). The product was prepared in a biosafety cabinet 30 minutes before administration. Insulin or placebo was placed in a 10 mL amber glass bottle (Gerresheimer AG, Düsseldorf, Germany), which was capped with a 10 mg sterile nasal pump (Aero Pump GmbH, Hochheim, Germany). […]

[3] = system: smokers, 36 hours of smoking abstinence; experiment: Post-spray symptom-specific subjective ratings (0-10) of pain, burn, taste (Example 2); format: in vivo, human
Protocol: Additional outcome measures included safety measures, i.e., post-spray symptom-specific subjective ratings and adverse events. Post-spray symptom-specific subjective ratings (0-10) of burn, pain, cough, and taste were collected after each spray round. Administration instructions were one spray in each nostril every three minutes for the total of six sprays. […] Adverse events were recorded and collected following the completion of every session as well as completion of the entire study.
Placebo contained 8.7% NaCl. Per FDA approved protocol, the product was prepared in a biosafety cabinet of UNM Translational Radiopharmacy. Drug Preparation occurred 30 minutes before administration. […] or placebo was placed in a 10 mL amber glass bottle (Gerresheimer AG, Düsseldorf, Germany), which was capped with a 10 mg sterile nasal pump (Aero Pump GmbH, Hochheim, Germany). Assembled product was primed per manufacturer's recommendations before 0.6 ml volume was administered to study participants. In a randomized fashion, study nurse administered one spray in each nostril every three minutes for the total of six sprays of either insulin or placebo. As each spray delivers 0.1 ml of fluid, and the concentration of insulin in Novolin R is 100 IU/mL, administering six sprays delivers 60 IU of insulin.
Random coefficient models were constructed for analyzing study outcomes. Treatment, time, treatment by time interaction, and sequence were included as fixed effects. Time nested within subjects, and time nested within treatment nested within subjects were included as random effects. Adverse events are presented in a descriptive fashion. No adjustment for multiple tests was made; all p values are reported at their nominal level.

[4] = vs 8.7% NaCl placebo, scale 0-10, three spray rounds, p≤0.05

In the case of “intranasal insulin: bulk human Regular insulin (U100 Novolin R, Novo Nordisk US), 100 IU/ml, six nasal sprays delivering 60 IU”, the “CSF insulin levels and peripheral insulin levels after intranasal administration” value ([1]; humans) is listed as “increases CSF insulin levels without changing peripheral insulin levels”, the “Time to reach the CSF” value ([1]; intranasal route) is listed as “within minutes” and the “Smoking urges / nicotine cravings (Questionnaire on Smoking Urges Brief) compared to placebo” value ([2]; 60 IU intranasal, overnight abstinence, through Trier Social Stress Test, p≤0.05) is listed as “decreased significantly; also recorded: significant reduction of nicotine cravings”. For the same substance, the “Smoking urges, treatment×time interaction, b” value ([2]; 60 IU vs placebo, SE(b)=0.032, z=1.93, p≤0.05) was 0.064, the “Smoking urges, main effect of treatment, b” value ([2]; 60 IU vs placebo, SE(b)=4.81, z=1.39, p=0.16, not significant) was 6.66 and the “QSU-Brief Factor 2 (anticipation of relief from negative affect) compared to placebo” value ([2]; 60 IU, overnight abstinence, interaction non-significant) was “no effect; also recorded: not Factor 2 scale”. For the same substance, the “QSU-Brief Factor 1 (strong desire and intention to smoke) compared to placebo” value ([2]; 60 IU, overnight abstinence, p≤0.05) was “overall decrease in smoking urges was driven by intranasal insulin's effect on Factor 1”, the “QSU-Brief Factor 1 (strong desire and intention to smoke) compared to placebo” value ([2]; 60 IU, overnight abstinence, p≤0.05, listed as Intranasal insulin) was “significantly decreased” and the “Duration of effect on QSU-Brief Factor 1” value ([2]; 60 IU, detected immediately following treatment administration) was no less than 100 min. The “QSU-Brief Factor 2, treatment×time interaction, b” value ([2]; SE(b)=0.01, z=1.48, p=0.14) was 0.02, the “QSU-Brief Factor 1, treatment×time interaction, b” value ([2]; SE(b)=0.018, z=2.15, p≤0.05) was 0.039 and the “QSU-Brief Factor 2, main effect of treatment, b” value ([2]; SE(b)=2.37, z=1.58, p=0.11) was 3.76. The “QSU-Brief Factor 1, main effect of treatment, b” value ([2]; SE(b)=2.61, z=1.36, p=0.17) was 3.55, the ““taste” rating, interaction with treatment, b” value ([3]; SE(b)=0.10, z=−0.75, p=0.45, not significant) was −0.07 and the ““pain” rating, treatment×spray number, b” value ([3]; SE(b)=0.16, z=−0.47, p=0.63) was −0.07. For the same substance, the ““burn” rating, interaction with treatment, b” value ([3]; SE(b)=0.17, z=1.23, p=0.22, not significant) was 0.21, the ““pain” rating, treatment, b” value ([3]; SE(b)=0.31, z=−1.17, p=0.24) was −0.36 and the ““burn” rating, treatment, b” value ([3]; SE(b)=0.43, z=−2.34, p≤0.05) was −1.01. For the same substance, the “Subjective spray rating of “pain”, effect of treatment” value ([3]; vs 8.7% NaCl placebo, scale 0-10, three spray rounds) was “No group differences were detected”, the “Subjective spray rating of “burn”, effect of treatment” value [3, 4] was “Main effect of treatment was significant; also recorded: There was an effect of treatment” and the “Subjective spray rating of “taste”, effect of treatment” value [3, 4] was “Main effect of treatment was significant; also recorded: there was an effect of treatment”. For the same substance, the “Subjective spray rating of “burn”, effect of treatment” value ([3]; vs 8.7% NaCl placebo, scale 0-10, three spray rounds, p≤0.05, listed as Intranasal insulin) was “notable burning sensation”.
